Test results from patent publication US20190040368.

Test system: recombinant human iduronate-2 sulfatase (rhIDS)
Sequence (chain, as listed by the source): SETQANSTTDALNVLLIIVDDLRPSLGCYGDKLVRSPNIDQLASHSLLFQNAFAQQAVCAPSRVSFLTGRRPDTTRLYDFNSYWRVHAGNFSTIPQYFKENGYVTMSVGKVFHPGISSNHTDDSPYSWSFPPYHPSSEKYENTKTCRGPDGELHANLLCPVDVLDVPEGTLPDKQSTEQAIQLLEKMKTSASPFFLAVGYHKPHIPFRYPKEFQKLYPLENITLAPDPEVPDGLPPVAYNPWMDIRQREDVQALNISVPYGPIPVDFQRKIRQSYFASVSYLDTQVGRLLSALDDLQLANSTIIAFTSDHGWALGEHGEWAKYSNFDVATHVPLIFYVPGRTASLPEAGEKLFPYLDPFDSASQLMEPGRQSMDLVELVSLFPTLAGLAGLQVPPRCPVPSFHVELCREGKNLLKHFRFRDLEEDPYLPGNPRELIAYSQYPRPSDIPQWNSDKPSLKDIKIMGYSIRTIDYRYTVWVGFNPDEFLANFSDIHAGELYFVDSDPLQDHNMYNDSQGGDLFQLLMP

Dendroctonus ponderosa Lip2-DpFGE-His6-HDEL fusion construct, sequence (chain, as listed by the source): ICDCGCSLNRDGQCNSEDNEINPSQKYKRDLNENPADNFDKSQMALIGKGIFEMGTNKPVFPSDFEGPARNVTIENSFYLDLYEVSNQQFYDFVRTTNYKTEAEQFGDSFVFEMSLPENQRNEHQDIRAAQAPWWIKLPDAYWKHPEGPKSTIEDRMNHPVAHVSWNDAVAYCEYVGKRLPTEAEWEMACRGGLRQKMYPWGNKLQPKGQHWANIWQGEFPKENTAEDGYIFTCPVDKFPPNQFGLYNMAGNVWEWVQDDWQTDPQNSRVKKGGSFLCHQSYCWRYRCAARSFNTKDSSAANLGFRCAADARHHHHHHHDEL

Substance “Dendroctonus ponderosa Lip2-DpFGE-His6-HDEL fusion construct” has a % activity of rhIDS; co-expression with DpFGE of 5%.
